What is called IC50 is the concentration needed to halve the response being measured.

The values below come from US20110112279A1 (Genentech, published 2011).

B1: S4 IgG (full-length human IgG1; LPG3-humankappaG6 and LPG4-humanHC-S4), expressed in CHO cells (antibody, V domains shown)
VH: EVQLVESGGGLVQPGGSLRLSCAASGFTISGSWIHWVRQAPGKGLEWVAWIAPYSGATDYADSVKGRFTISADTSKNTAYLQMNSLRAEDTAVYYCAREGGLYWVFDYWGQGTLVTVSS
VL: DIQMTQSPSSLSASVGDRVTITCRASQDVSTAVAWYQQKPGKAPKLLIYSASFLYSGVPSRFSGSGSGTDFTLTISSLQPEDFATYYCQQSYTTPPTFGQGTKVEIKR
notes: also called S4 antibody
B2: human STOP-1 delta-THD (residues 1-54, 94-243, plus His), expressed in CHO-psgb cells (ligand)
chain: SEIPKGKQKAQLRQREVVDLYNGMLRESFEESWTPNYKQCSWSSLNYGIDLGKIAECTFTKMRSNSALRVLFSGSLRLKCRNACCQRWYFTFNGAECSGPLPIEAIIYLDQGSPEMNSTINIHRTSSVEGLCEGIGAGLVDVAIWVGTCSDYPKGDASTGWNSVSRIIIEELPKHHHHHHHH
notes: also called ΔTHDh762HIP; M1-M54 fused to L94-K243-His
B3: human STOP-1 short form (L94-K243) with C-terminal His tag, baculovirus expressed (ligand, not shown: small tags and cut ends)
chain: LRESFEESWTPNYKQCSWSSLNYGIDLGKIAECTFTKMRSNSALRVLFSGSLRLKCRNACCQRWYFTFNGAECSGPLPIEAIIYLDQGSPEMNSTINIHRTSSVEGLCEGIGAGLVDVAIWVGTCSDYPKGDASTGWNSVSRIIIEELPK
notes: also called #94-243; L94-K243-His
B4: human STOP-1 E89-K243 with C-terminal His tag, baculovirus expressed (ligand, not shown: small tags and cut ends)
chain: EKGECLRESFEESWTPNYKQCSWSSLNYGIDLGKIAECTFTKMRSNSALRVLFSGSLRLKCRNACCQRWYFTFNGAECSGPLPIEAIIYLDQGSPEMNSTINIHRTSSVEGLCEGIGAGLVDVAIWVGTCSDYPKGDASTGWNSVSRIIIEELPK
notes: A mix of trimeric and hexameric complexes by light scattering; also called E89-K243-His; E89humanSTOP-1-pAcGP67B
B5: human STOP-1, full length, C-terminal 8xHis tag (h762HIP; M1-K243-His), expressed in CHO-psgb cells (ligand)
chain: SEIPKGKQKAQLRQREVVDLYNGMCLQGPAGVPGRDGSPGANGIPGTPGIPGRDGFKGEKGECLRESFEESWTPNYKQCSWSSLNYGIDLGKIAECTFTKMRSNSALRVLFSGSLRLKCRNACCQRWYFTFNGAECSGPLPIEAIIYLDQGSPEMNSTINIHRTSSVEGLCEGIGAGLVDVAIWVGTCSDYPKGDASTGWNSVSRIIIEELPKHHHHHHHH
notes: The secreted protein purified from medium lacks the signal peptide; Light scattering: about 58% hexamer and 42% trimer; also called UNQ762; full length form
B6: human STOP-1 S31-K243 with C-terminal His tag, baculovirus expressed (ligand, not shown: small tags and cut ends)
chain: SEIPKGKQKAQLRQREVVDLYNGMCLQGPAGVPGRDGSPGANGIPGTPGIPGRDGFKGEKGECLRESFEESWTPNYKQCSWSSLNYGIDLGKIAECTFTKMRSNSALRVLFSGSLRLKCRNACCQRWYFTFNGAECSGPLPIEAIIYLDQGSPEMNSTINIHRTSSVEGLCEGIGAGLVDVAIWVGTCSDYPKGDASTGWNSVSRIIIEELPK
notes: Primarily trimeric by light scattering; also called S31-K243-His; S31humanSTOP-1-pAcGP67B
B7: S7 F(ab)'2 displayed on M13 phage (V0350-4-S7) (other)
light: SDIQMTQSPSSLSASVGDRVTITCRASQDVSTAVAWYQQKPGKAPKLLIYSASFLYSGVPSRFSGSGSGTDFTLTISSLQPEDFATYYCQQSYTTPPTFGQGTKVEIKRTVAAPSVFIFPPSDEQLKSGTASVVCLLNNFYPREAKVQWKVDNALQSGNSQESVTEQDSKDSTYSLSSTLTLSKADYEKHKVYACEVTHQGLSSPVTKSFNRGECGASSGMADPNRFRGKDLA
heavy: AYAEVQLVESGGGLVQPGGSLRLSCAASGFTISGSDIHWVRQAPGKGLEWVGRISPYGGNTNYADSVKGRFTISADTSKNTAYLQMNSLRAEDTAVYYCARVGGLKLLFDYWGQGTLVTVSSASTKGPSVFPLAPSSKSTSGGTAALGCLVKDYFPEPVTVSWNSGALTSGVHTFPAVLQSSGLYSLSSVVTVPSSSLGTQTYICNVNHKPSNTKVDKKVEPKSCDKTHG
notes: also called S7-F(ab)'2-phage; F(ab)'2-S7 phage
B8: F5 F(ab)'2 displayed on M13 phage (V0350-4-F5) (other)
light: B7 light
heavy: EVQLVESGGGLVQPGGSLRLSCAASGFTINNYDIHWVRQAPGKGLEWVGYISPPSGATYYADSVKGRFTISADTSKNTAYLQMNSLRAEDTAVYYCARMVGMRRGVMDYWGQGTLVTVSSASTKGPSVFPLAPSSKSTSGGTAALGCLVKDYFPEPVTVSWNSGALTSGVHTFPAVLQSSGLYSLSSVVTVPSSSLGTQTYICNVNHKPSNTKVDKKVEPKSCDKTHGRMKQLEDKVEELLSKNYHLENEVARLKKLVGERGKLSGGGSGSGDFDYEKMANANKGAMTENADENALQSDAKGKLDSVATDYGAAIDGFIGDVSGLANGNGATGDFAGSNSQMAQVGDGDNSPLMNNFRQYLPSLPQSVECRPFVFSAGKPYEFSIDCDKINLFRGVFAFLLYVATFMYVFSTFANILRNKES
notes: also called F5-F(ab)'2-phage; F(ab)'2-F5 phage
B9: S9 Fab displayed on M13 phage (V0350-2b-S9) (Fab)
light: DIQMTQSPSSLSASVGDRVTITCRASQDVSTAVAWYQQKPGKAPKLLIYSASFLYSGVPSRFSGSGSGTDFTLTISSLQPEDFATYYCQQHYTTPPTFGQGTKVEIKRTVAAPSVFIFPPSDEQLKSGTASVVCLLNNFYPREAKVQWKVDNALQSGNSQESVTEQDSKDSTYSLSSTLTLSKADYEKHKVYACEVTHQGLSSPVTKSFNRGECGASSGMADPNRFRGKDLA
heavy: AYAEVQLVESGGGLVQPGGSLRLSCAASGFTISNYGIHWVRQAPGKGLEWVGRISPSNGSTYYADSVKGRFTISADTSKNTAYLQMNSLRAEDTAVYYCAKCSVRFAYWGQGTLVTVSSASTKGPSVFPLAPSSKSTSGGTAALGCLVKDYFPEPVTVSWNSGALTSGVHTFPAVLQSSGLYSLSSVVTVPSSSLGTQTYICNVNHKPSNTKVDKKVEPKSCDKTHL
notes: also called S9 (Fab)-phage
B10: S4 Fab displayed on M13 phage (V0350-2b-S4) (Fab, V domains shown)
VH: B1 VH
VL: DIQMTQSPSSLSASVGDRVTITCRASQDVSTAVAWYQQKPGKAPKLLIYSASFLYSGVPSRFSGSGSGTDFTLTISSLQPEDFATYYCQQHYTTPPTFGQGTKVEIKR
notes: Fab on phage: the heavy chain (VH-CH1) is fused to M13 cP3 and the light chain carries a gD tag; also called S4-Fab phage; S4 (Fab)-phage
B11: S16 F(ab)'2 displayed on M13 phage (V0350-4-S16) (other)
light: B7 light
heavy: AYAEVQLVESGGGLVQPGGSLRLSCAASGFTITNSDIHWVRQAPGKGLEWVATIYPYGGYTYYADSVKGRFTISADTSKNTAYLQMNSLRAEDTAVYYCARGGGMDGYVMDYWGQGTLVTVSSASTKGPSVFPLAPSSKSTSGGTAALGCLVKDYFPEPVTVSWNSGALTSGVHTFPAVLQSSGLYSLSSVVTVPSSSLGTQTYICNVNHKPSNTKVDKKVEPKSCDKTHG
notes: also called S16-F(ab)'2-phage; F(ab)'2-S16 phage

The first series deals with B5. Kind of series: blocking ELISA, legend of FIG. 22. As to the method:
First, 96-well Nunc Maxisorp plates were coated with full length human STOP-1 (2 ug/ml in PBS) at 4° C. overnight or at room temperature for 2 hours. The wells were blocked by adding 65 ul 1% BSA for 30 minutes followed by 40 ul 1% Tween20 for another 30 minutes. Next, the wells were washed with PBS—0.05% Tween20 5 times. Various concentrations of S4 IgG (in ELISA buffer) were incubated in the wells for 30 minutes at room temperature. Then, S4 (Fab)-phage, S7 (F(ab)′₂)-phage, S9 (Fab)-phage, S16 (F(ab)′₂)-phage or F5 (F(ab)′₂)-phage were added to different wells for 10 minutes at a concentration that would normally produce 90% binding capacity in the absence of the S4 IgG antibody. The wells were washed with PBS—0.05% Tween20 5 times.
Binding was quantified by adding 75 ul/well of horse radish peroxidase (HRP)-conjugated anti-M13 antibody in PBS plus 0.5% BSA and 0.05% Tween20 at room temperature for 30 minutes (Sidhu et al., supra). […] Next, 100 ul/well of a 1:1 ratio of 3,3′,5,5′-tetramethylbenzidine (TMB) Peroxidase substrate and Peroxidase Solution B (H₂O₂) ((Kirkegaard-Perry Laboratories (Gaithersburg, Md.)) was added to the well. The reaction was stopped by adding 100 ul 1M Phosphoric Acid (H₃PO₄) ((Kirkegaard-Perry Laboratories (Gaithersburg, Md.)) to each well. The OD of the yellow color in each well was determined using a standard ELISA plate reader at 450 nm.
For B1, the binding result is on record as “binds”.

The next series concerns the molecule itself. Briefly: self-association; size exclusion chromatography with light scattering. On the procedure:
Full length STOP-1-HIS proteins or various truncations thereof were expressed in SF9 baculovirus-infected cells or CHO cells as described above. The proteins were purified from the media by using Ni-NTA agarose beads as discussed above. The baculoviral-expressed proteins S31-K243-His, E89-K243-His, or L94-K243-His were loaded onto an 8 mm×300 mm Shodex KW802.5 size exclusion column and eluted with 100 mM NH₄HCO₃, 200 mM NH₄Cl pH7.8 at a flow rate of 1 ml/ml. CHO-psgb expressed full length proteins were loaded onto an 8 mm×300 mm Shodex KW804 size exclusion column and eluted with 25 mM sodium phosphate, 500 mM NaCl at a flow rate of 1 ml/ml. CHO-psgb expressed proteins, M1-M54 fused to L94-K243-His, were loaded onto an 8 mm×300 mm Shodex KW802.5 size exclusion column and eluted with 25 mM sodium phosphate, 500 mM NaCl at a flow rate of 1 ml/ml.
The eluted protein was analyzed by an Agilent Model 1100 HPLC system with an Agilent multi wavelength detector (UV) connected to a Wyatt MiniDAWN laser light scattering (LS) instrument and a Wyatt Optilab differential refractometer (RI). The average molecular weight of the proteins or their aggregates in each peak was determined by selecting a peak and using the Zimm fitting method (Phillip J. Wyatt, (1993) Analytica Chimica Acta 272:1-40) with the Astra software package (Wyatt, USA). The percentage of aggregation was calculated from the integrated peak areas of the UV signal at 214 nm. See FIG. 6 and FIG. 7 for results.
On the technique in general: In gel filtration, larger molecules generally elute earlier.
In the case of B2, the binding result is reported as “binds”.

B3: the binding result is on record as “binds”.

As to B4, the binding result is “binds”.

In the case of B5, the binding result is on record as “binds”.

For B6, the binding result is given as “binds”.

In another series the target is B5. Briefly: solution competition phage ELISA (762 S/F): short form coated, phage pre-incubated with full length STOP-1 in solution; IC50 is the STOP-1 concentration. As to the method: (§1) The wells were blocked by adding 65 ul 1% BSA for 30 minutes followed by 40 ul 1% Tween20 for another 30 minutes. Next, the wells were washed with PBS—0.05% Tween20 5 times. Various dilutions of F(ab) or F(ab)′₂ phage down to 0.1 O.D./ml in ELISA buffer (PBS—0.1% BSA and 0.05% Tween20) were added to the wells for 15 minutes at room temperature. The wells were then washed with PBS—0.05% Tween20 at least three times. 75 ul of HRP-conjugated anti-M13 antibody (Amersham, 1/5000 dilution with ELISA buffer) per well was added and incubated at room temperature for 30 minutes. The wells were washed again with PBS—0.05% Tween20 at least five times. Next, 100 ul/well of a 1:1 ratio of 3,3′,5,5′-tetramethylbenzidine (TMB) Peroxidase substrate and Peroxidase Solution B (H₂O₂) ((Kirkegaard-Perry Laboratories (Gaithersburg, Md.)) was added to the well and incubated for 5 minutes at room temperature. The reaction was stopped by adding 100 ul 1M Phosphoric Acid (H3PO₄) ((Kirkegaard-Perry Laboratories (Gaithersburg, Md.)) to each well. The optical density of the color in each well was determined using a standard ELISA plate reader at 450 nm. The dilutions of phage were plotted against the O.D. readings.
(§2) Third, a competition ELISA was performed. 96-well Nunc Maxisorp plates were coated with full length or short form human STOP-1 (2 ug/ml in PBS) at 4° C. overnight or at room temperature for 2 hours. The wells were blocked by adding 65 ul 1% BSA for 30 minutes followed by 40 ul 1% Tween20 for another 30 minutes. The wells were washed with PBS—0.05% Tween20 5 times. […] The unbound phage was assayed by transferring 75 ul of the well mixture to second 96-well plate pre-coated with full length or short form human STOP-1 and incubating at room temperature for 15 minutes. The wells of the second plate were washed with PBS—0.5% Tween20 at least three times. 75 ul of HRP-conjugated anti-M13 antibody ( 1/5000 dilution with ELISA buffer) per well was added and incubated at room temperature for 30 minutes. The wells were washed again with PBS—0.05% Tween20 at least five times.
For B7, the IC50 is 4.7 nM. This counts as single-digit nanomolar.

As to B8, the IC50 stood at 1000 nM.

B9 registered an IC50 of 331 nM.

The molecule B10 displayed an IC50 of 719 nM.

In another series the target is B3. Kind of series: solution competition phage ELISA (762 S/S), short form coated and short form as competitor; ND = not detectable. As to the method:
as §1
Third, a competition ELISA was performed. 96-well Nunc Maxisorp plates were coated with full length or short form human STOP-1 (2 ug/ml in PBS) at 4° C. overnight or at room temperature for 2 hours. […]
As for B8, the binding result is “no binding (tested: 0.1 to 500 nM competitor)”.

A further series concerns the target B5. Kind of series: solution competition phage ELISA (762 F/F): full length coated, phage pre-incubated with full length STOP-1 in solution; IC50 is the STOP-1 concentration. On the procedure: as §1, §2
On the technique in general: In an ELISA, binding on a coated surface is turned into a signal by an enzyme label.
For B7, the IC50 turned out to be 2.7 nM. In other words, the single-digit nanomolar range.

In the case of B11, the IC50 was determined as 32 nM.

As for B10, the IC50 was 0.9 nM.

The target in a further series is B3. Briefly: solution competition phage ELISA (762 S/S): short form coated, phage pre-incubated with short form STOP-1 in solution; IC50 is the STOP-1 concentration. On the procedure: as §1, §2
As for B7, the IC50 worked out at 35 nM. In other words, the double-digit nanomolar range.

The molecule B11 registered an IC50 of 114 nM.

In the case of B9, the IC50 is greater than 1000 nM.

B10: the IC50 came out at 3 nM. That is a single-digit nanomolar value.
